The source of these data is PMC4715562 (Proteins, 2015).

The data set deals with the molecule itself. Put plainly: crystal structure.

B1: Xrcc4-MyH7-1590-1657 (domain or fragment, human)
chain: GGSGERKISRIHLVSEPSITHFLQVSWEKTLESGFVITLTDGHSAWTGTVSESEISQEADDMAMEKGKYVGELRKALLSGAGPADVYTFNFSKESCYFFFEKNLKDVSFRLGSFNLEKVENPAEVIRELICYCLDTTAENQAKNEHHLRVVDSLQTSLDAETRSRNEALRVKKKMEGDLNEMEIQLSHANRMAAEAQKQVKSLQSLLKDTQIQL
modifications: reductively methylated
As to B1, the binding result was “binds”.
